Test results taken from the supplement of paper PMC9170038.

System: MS2 coat protein
Assay: apparent KD of MS2 coat protein; designed switch direction (-1 OFF switch, 1 ON switch): -1; higher = weaker reporter binding
In short: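 Designed RNA switches sharing common flanks were transcribed on Illumina chips by stalled E. coli RNA polymerase. They were titrated with SNAP-549-labelled MS2 coat protein, from 0.7 or 1.5 nM doubling to 3 µM, in Tris-HCl pH 7.5 buffer with KCl, MgCl2, BSA, DTT, tRNA and Tween-20. Titrations ran without input, with 200 uM small-molecule ligand, or with an oligonucleotide input. The apparent KD of each design is the median over its clusters, after curve-fitting of normalised cluster fluorescence.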

[1] = input ligand: microRNA oligo, concentration not stated
[2] = Eterna round: R95, input ligand: microRNA oligo, concentration not stated
[3] = Eterna round: R95, input ligand: FMN 200 uM
[4] = Eterna round: R95, input ligand: none

Sequence | apparent KD of MS2 coat protein (input ligand: FMN 200 uM) | apparent KD of MS2 coat protein (input ligand: none) | apparent KD of MS2 coat protein [1] | apparent KD of MS2 coat protein [2] | apparent KD of MS2 coat protein [3] | apparent KD of MS2 coat protein [4]
GGCACACAUGAGGAUCACCCAUGUGAGGAUAUGCUGCGAUCGUCGAUAGACGAUAGCAGUAGAAGGCACAUGCC [Mat - Exclusion 1 - Eli Mod - D7] (Eterna round: R97, puzzle: Exclusion 1) | 25.9 nM | 19.1 nM |  |  |  | 
GCGCAAACGCCAAAAGGCGAAACAACAUGAGGAUCACCCAUGUAGGAUAUCGAUUGCUUUGCAGUCGAGAAGGACAUGAUGCGC [JL ENG3 3.80 Mod 2] (Eterna round: R96, puzzle: Exclusion NG 3) | 43.9 nM | 20.8 nM | 18.5 nM |  |  | 
AGCUAGUGCCGAGGAUAUACAUGAGGAUCACCCAUGUAAGGCAGUCGGUUUCUGACUGCCAAUAUGUAGAAGGCGGCGUUGGCA [JL ENG2 1.48] (Eterna round: R96, puzzle: Exclusion NG 2) | 45.4 nM | 15.7 nM | 15.8 nM |  |  | 
AAUUCACAUGAGGAUCACCCAUGUCAGGAUAUGGUUUCACGUGUUUCGGUGCUUGAGGCCAGAAGGGACAGCUA (puzzle: Exclusion 1) |  |  |  | 62.4 nM |  | 
CAUGUCCAACGAGGAUAUGGUAAAGGAAGUGUACCAGAAGGCGUGCGGACAUGAGGAUCACCCAUGUCGCGCGGUGCGAUGUGG [MOD3 Nando EXNG 1.1] (Eterna round: R96, puzzle: Exclusion NG 1) | 37.2 nM | 29.3 nM | 15.8 nM |  |  | 
UUAAUUCUGAUUCUUGAAAUACAUGAGGAUCACCCAUGUUCACAGGAUAUUGAUUAUGGUAGUAACAAGAAGGGUGUAUCAUAU [JR_ExcNG3_Sub039] (Eterna round: R96, puzzle: Exclusion NG 3) |  |  | 64.8 nM |  |  | 
GCAGCGUAUGUAGGAUAUCGGUCAGUUUCUGAUCGAGAAGGACAUGAGGAUCACCCAUGUAUAUUCCGUCGUGAGACGGGCUGC [JL ENG1 3.69] (Eterna round: R96, puzzle: Exclusion NG 1) | 23.6 nM | 18.4 nM | 14.3 nM |  |  | 
AGUAGUAGUAUCCGAUCGUACAUGAGGAUCACCCAUGUAGCUAGACGUGCACGCGAUGCUCGUCAGACUACCAGAUG [salish99_TOv1_r3_036] (puzzle: Sensor v3, turn-off variant 1) |  |  |  | 168 nM | 202 nM | 225 nM
UGCUGACGAGGAUAUACAUGAGGAUCACCCAUGUUGGUCAAGCGACUUCGGUCGCAAUGUAGAAGGCGUCAGCA [E3/8-A5] (Eterna round: R97, puzzle: Exclusion 3) | 290 nM | 513 nM |  |  |  | 
UAAAAGCGAGGAUAUACAUGAGGAUCACCCAUGUGAGGCGAAACGCCUCGGGCCAUCAGUAGAAGGUGCAAAAC [Veorgebe] (puzzle: Exclusion 3) |  |  |  | 70.7 nM |  | 
AUCGUGCAGCUUUGCUGUACGAGUACAUGAGGAUCACCCAUGUAGGAUAUGGUACGCAAAGCGUGCUAGAAGGAUAUGAGAAAU [Mat - Exclusion NG 3 - Mod of JL - D99] (Eterna round: R96, puzzle: Exclusion NG 3) | 30.7 nM | 36.3 nM | 18.8 nM |  |  | 
GGUGGACAUGAGGAUCACCCAUGUGAGGAUAUCGGCUGGCUAGUGGCGGCUGGCUUCUCGAGAAGGCGCAUAGU [Exclusion 1 V79] (puzzle: Exclusion 1) |  |  |  | 42.2 nM |  | 
CGGUGCUUCUGGAAACAUGAGGAUCACCCAUGUUGAGUUAGCGAGGAUAUCGGUAACACUUGUUAUGAGAAGGCGCGAACCAGA [Ex NG3 #35] (Eterna round: R96, puzzle: Exclusion NG 3) | 13.6 nM | 19.4 nM | 14.6 nM |  |  | 
AUUUAGAGAGGAUAUAUAUUGUGAAACAUGAGGAUCACCCAUGUAAUAAUAUGGAUAUAAAUAGAAGGCUCAUUUU [Mat - Exclusion 5 - JL mod - D11] (puzzle: Exclusion 5) |  |  |  | 21.2 nM | 26.1 nM | 25.1 nM
AUGCUCCGUGUAGGAUAUCGCCGUACCACUCGGCGAGAAGGACAUGAGGAUCACCCAUGUAUGUUAUUAUCACGUGUGGCGCGC [Design 50] (Eterna round: R96, puzzle: Exclusion NG 1) | 46 nM | 20.5 nM | 12.9 nM |  |  | 
ACGCACACGCACGCACGCACACAUGAGGAUCACCCAUGUAAUUAGGAUAUAUUGAAGAACAGAGAAUAGAAGGAAUUACUCAUG [Default title] (Eterna round: R96, puzzle: Exclusion NG 3) | 105 nM | 70.7 nM | 88 nM |  |  | 
UAUUAGCUAGGAUAUACAUGAGGAUCACCCAUGUCACGGGUCAACUUGUCCUAUGCGUGUAGAAGGAGCGACCC [JL Ceriza mod 5] (puzzle: Exclusion 3) |  |  |  | 18.8 nM |  | 
CUUUUGUGAGGAUAUCAGUAGUAAUACAAUAGUAUUACUACUGAGAAGGCACAUGAGGAUCACCCAUGUUCUUC [Ex4 344 Omei mod 2] (puzzle: Exclusion 4) |  |  |  | 23.2 nM |  | 
CCGCAAAUGGAGGAUAUCGUAUCGGAUACGAUACGAGAAGGCUAUACAUGAGGAUCACCCAUGUGUCCUAGCGG [Fiskers Ex 6 - 46] (puzzle: Exclusion 6) |  |  |  | 11.4 nM |  | 
UGUGUGCUGCGAGGAUAUACAUGAGGAUCACCCAUGUAAAUGUGUGAGGCUUUGCCUCACACAAUGUAGAAGGCGCAGUACACU [Mat - Exclusion NG 2 - Mod of JL - D4] (Eterna round: R96, puzzle: Exclusion NG 2) | 16.9 nM | 11.6 nM | 9.63 nM |  |  | 
UACCUGAGGCUUUGCUUUAGGUAUACAUGAGGAUCACCCAUGUAGGAUAUGGUAGGCUUUGCUUACCAGAAGGACAUGUUAAUU [JL ENG3 1.09] (Eterna round: R96, puzzle: Exclusion NG 3) | 141 nM | 29 nM | 30.9 nM |  |  | 
AAAUGGGCGUAGGAUAUGAGAUGGUCUAGCAGCUCAGAAGGACGCACAUGAGGAUCACCCAUGUGAUCGGACUA [Celebidi] (Eterna round: R96, puzzle: Exclusion 6) | 281 nM | 34.8 nM | 27.8 nM |  |  | 
CACCUGAAUACAGGAUAUCUUACAUGAGGAUCACCCAUGUAAUAAAUGAGAAUUUCGAAUGUAAUAGAGAAGGGUAGAUAAGGC [Ostracism 87 - Jieux - Exclusion NG 2] (Eterna round: R96, puzzle: Exclusion NG 2) | 39.2 nM | 33.1 nM | 26.5 nM |  |  | 
GAUACACAUGAGGAUCACCCAUGUUAGGAUAUUAGCGGGAAAGCUGUCAGACAGUCGAUGAGAAGGAACAGGAG [Excls1-VIII] (puzzle: Exclusion 1) |  |  |  | 29.3 nM |  | 
AGAGUGCUGCGAGGAUAUACAUGAGGAUCACCCAUGUUUUCCUGUGAGGCAAAGCCUCACAGGAUGUAGAAGGCGCAGUACUCA [Mat - Exclusion NG 2 - Mod of JL - D39] (Eterna round: R96, puzzle: Exclusion NG 2) | 13.9 nM | 17.7 nM | 11.1 nM |  |  | 
